Results on one protein are retold here after paper doi:10.1101/2021.10.02.462850 (bioRxiv, 2021).

The data set deals with the molecule itself. Kind of data set: crystal structure.

B1: RUN1^TIR-E100A (domain or fragment, grapevine, UniProt V9M398 23-198, looked up)
chain: RTITYDVFLSFRGEDTRFNFTDHLYSALGRRGIRTFRDDKLRRGEAIAPELLKAIEESRSSVIVFSENYARSRWCLDALVKIMECHKDKKDPGHAVFPIFYHVDPSHVRKQEGSFGEAFAGYGENLKDKIPRWRTALTEAANLSGWPLQDGYESNQIKEITDSIFRRLKCKRLDAG
B1: the binding result was “binds”.
